Measured values as given in the supplement of paper PMC9170038.

Test system: MS2 coat protein
Experiment: apparent KD of MS2 coat protein; designed switch direction (-1 OFF switch, 1 ON switch): 1; higher = weaker reporter binding
In short: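 An oligonucleotide input, 200 uM small-molecule ligand, or no input was present during titration of SNAP-549-labelled MS2 coat protein, which was doubled from 0.7 or 1.5 nM to 3 µM. Designed RNA switches had been transcribed on Illumina chips by stalled E. coli RNA polymerase. Apparent KD per design is the median over clusters of curves fitted to normalised cluster fluorescence.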

[1] = input ligand: microRNA oligo, concentration not stated
[2] = Eterna round: R95, input ligand: microRNA oligo, concentration not stated
[3] = Eterna round: R95, input ligand: FMN 200 uM
[4] = Eterna round: R95, input ligand: none

Row | Sequence | apparent KD of MS2 coat protein (input ligand: FMN 200 uM) [nM] | apparent KD of MS2 coat protein [1] [nM] | apparent KD of MS2 coat protein (input ligand: none) [nM] | apparent KD of MS2 coat protein [2] [nM] | apparent KD of MS2 coat protein [3] [nM] | apparent KD of MS2 coat protein [4] [nM]
1 | CAUACGCGGAGAGGAUAUCGCAGGGUAACGGUAAGUGCCCGAUGACAUGAGGAUCACCCAUGUAUCGAGAAGGCUCCUCACCCU [Eternabot solution 22] (Eterna round: R96, puzzle: Same State NG 2) | 10.6 | 7.9 | 15.1 |  |  | 
2 | GGAGCCGGUACUGAGGAUAUUCAUAUUAAAACAUGAGGAUCACCCAUGUGGGCCAGAAGGCCUUGGGAGAAGGCAGACCAGCUCG [Atgexeedri - 3] (Eterna round: R96, puzzle: Same State 2) | 18.2 | 108 | 156 |  |  | 
3 | GUUACAUGAGGAUCACCCAUGUAUGUGUGGGAGUAAGUGUCUUAGGAUAUCUAUGAUUUAAUUCAAGAGAAGGAAGAUUGUUGU [JMF's solution 85] (Eterna round: R96, puzzle: Same State NG 3) | 115 | 70.7 | 79.5 |  |  | 
4 | CCGAUAAUAGGACAGGAUAUGACUGUCGUCACAUGAGGAUCACCCAUGUCCCGGCAAUGCCACCGUUAGAAGGGUCCUAUCUCGA [Maeded] (puzzle: Same State 2) |  |  |  | 13.5 |  | 
5 | AGUAUACAUGAGGAUCACCCAUGUCUGUAACGGACAGGAUAUGCGUUGCAUCACUGUAAUGCAGAAGGGUCCUGUA [Same State 1 - Mod of JMF's solution 1 v.2] (Eterna round: R96, puzzle: Same State 1) | 50.5 | 148 | 202 |  |  | 
6 | UUGAAGAAUUAAGGAUAUCGAGUCGUCUAAUUAAACAUGAGGAUCACCCAUGUGGGUUGCGGUAUCGAGAAGGUAAAUUACUAA [JL JR Sub099 mod 1] (Eterna round: R96, puzzle: Same State NG 2) | 14.3 | 20.6 | 32.2 |  |  | 
7 | UCGUUCAUCGUAGGAUAUCUAGGAUAUGAACGAGGAUCACCCGAGCAGCAUCAGCGCAUCAGAGGAGAGAAGGACGCUGAUGCG [pwkr ssNG2 2F5 2FMN.20] (Eterna round: R96, puzzle: Same State NG 2) | 30 | 8.83 | 84.8 |  |  | 
8 | GGAGCCGGCCUAGGAUAUUUCAUAACAAAACAUGAGGAUCACCCAUGUAGGCCAGAAGGCCUUGGGAAGAAGGAGGUCGGCUCC [Loop Effect - C26] (Eterna round: R96, puzzle: Same State NG 2) |  | 18.9 |  |  |  | 
9 | GUUAAACAUGAGGAUCACCCAUGUCAAUGUAGUCGAGGAUAUGGGCAGCUAUGAGGCGUACUAGAAGGCGAAGAGG [Mat - Same State 1 - Mod of JL - D11] (puzzle: Same State 1) |  |  |  | 236 | 121 | 334
10 | AUUGGGUAACGAGGAUAUCGUUUUUGUUUUCUUCGAGAAGGCGUUAUUGUUUAUUUCUAUUGUUACAUGAGGAUCACCCAUGUU [JR_SSNG1_Sub055] (Eterna round: R96, puzzle: Same State NG 1) | 15 | 13.8 | 21.5 |  |  | 
11 | CUGAGCGAUCGAGGAUAUCACGUCGUUUAGACGUGAGAAGGCGAUCAUAACAUGAGGAUCACCCAUGUAUUACAUGAAGCUCAG [SSNG1/4-A3] (Eterna round: R96, puzzle: Same State NG 1) | 16.8 | 14.9 | 19.2 |  |  | 
12 | AUAGUUGCUGAAGGAUAUGAUGAGGAUCACCCAUCAGAAGGUUGGCUAUUGGGUGGACAUGAGGAUCACCCGUGUUCUUUGGUA (Eterna round: R96, puzzle: Same State NG 1) | 48.6 | 59.1 | 82.4 |  |  | 
13 | CCGUUGAUGGGACAGGAUAUGACUGUCGUCACAUGAGGAUCACCCAUGUCCCGGCAAUGCCACCGUUAGAAGGGUCCCGUCUCGG [Edraedbibe] (puzzle: Same State 2) |  |  |  | 12 |  | 
14 | AGCUUUUAAUUAGGAUAUGGUCACAUGAGGAUCACCCAUGUAACGAUGAUAUAAUGUGGUCAAGACUAGAAGGGAUUGCUAACA [SameState NG2 #68] (Eterna round: R96, puzzle: Same State NG 2) | 589 | 357 | 355 |  |  | 
15 | AAUUGUUUCUGAGGAUAUCAGUAGUAUGCCAAUUGAGAAGGCAGUACAUGAGGAUCACCCAUGUUGUGGUUUGAUAGAAUGAUA [JR_SSNG1_Sub002] (Eterna round: R96, puzzle: Same State NG 1) | 170 | 143 | 181 |  |  | 
16 | GCCGCGUUUCGCGCCUACAUGAGGAUCACCCAUGUUUGUAGGCAGGAUAUCGCUCGCUUUGCGGGCGAGAAGGGCUGUUGUGGC [salish99_SSNG3_R04_019] (Eterna round: R96, puzzle: Same State NG 3) | 45.8 | 41.8 | 54.4 |  |  | 

Row | Sequence | apparent KD of MS2 coat protein (input ligand: FMN 200 uM) [nM] | apparent KD of MS2 coat protein [1] [nM] | apparent KD of MS2 coat protein (input ligand: none) [nM] | apparent KD of MS2 coat protein [2] [nM] | apparent KD of MS2 coat protein [3] [nM] | apparent KD of MS2 coat protein [4] [nM]
17 | AGCUAGGUGGCAGGAUAUGGGCACACCUACAUGAGGAUCACCCAUGUCUAAAGGUUGCAAAAGGACCAGAAGGGCCACGCUAGC [Onzaislege] (Eterna round: R96, puzzle: Same State NG 2) | 19.2 | 82.7 | 178 |  |  | 
18 | CAAGGACGGACACAGGAUAUCCUCACCUACACAUGAGGAUCACCCAUGUCAUAAAAGAUGGUGCAGGAGAAGGGUGCGGCGUCAA [Zarelaesdi] (puzzle: Same State 2) |  |  |  | 8.32 | 7.93 | 6.36
19 | GUGCUCGUGUGAGGAUAUGCGGCCGGGUCGGCUGCAGAAGGUACUAUUAUACAUGAGGAUCACCCAUGUCGCUUUUCUCCGGUG [salish99_SSNG1_r04_919] (Eterna round: R96, puzzle: Same State NG 1) | 62.5 | 41.2 | 49 |  |  | 
20 | AUAAAACAUGAGGAUCACCCAUGUCAACAAAGAUGAGGAUAUGUACAGACUUCGGUCUGUACAGAAGGCAUAUAAU [salish99_ss1_r3_099] (puzzle: Same State 1) |  |  |  | 15.2 | 15.4 | 13.9
21 | UGGUACAUGGGAGGAUAUGGGCAAGGGACAUGAGGAUCACCCAUGUAUUAAAAGCCGAAAGGCAUCUAGAAGGCCCAUGUACCU [JL SSNG1 3.87] (Eterna round: R96, puzzle: Same State NG 2) | 14 | 42.7 | 50.2 |  |  | 
22 | AGUUGUGGAAAACUAUAGCAAAAGUAUGUACAUGAGGAUCACCCAUGUCAUGUACAAGCUUUUUGCUCGUCUUAAAA [ak 4 mod of one Eli's designs.] (puzzle: Sensor for hsa-mir-208a) |  |  |  | 21 | 23 | 23.3
23 | AGUCCAGCCUGAGCUGGACAAAAGCAUGUACAUGAGGAUCACCCAUGUCAUGUACAGGCUUUUUGCUCGUCUUAAAA [Zipper 46 - 8] (puzzle: Sensor for hsa-mir-208a) |  |  |  | 16.1 | 213 | 300
24 | UAAAUAAAGUAAGGAUAUACAUGAGGAUUUCUCGUAGAAGGUACAAGACAUGAGGAUCACCCAUGUAUCGCUCCGUAGAGCGUA [Mat - Same State NG 1 - JL mod - D21] (Eterna round: R96, puzzle: Same State NG 1) |  | 57.7 |  |  |  | 
25 | CGGAAACGUCAAGGAUAUGCUACCGUUUCGGUAGCAGAAGGUGAUCACAUGAGGAUCACCCAUGUAUGCAUGCGUGAGCGUGCU [JL SSNG1 3.56] (Eterna round: R96, puzzle: Same State NG 1) | 206 | 187 | 177 |  |  | 
26 | UUUUAUUUUUGGGUGCAAGCUUUUUGCUUACAUGAGGAUCACCCAUGUUUUUAUUUUUUAUUUUUAUUUUUAUUUUU (puzzle: Sensor for hsa-mir-208a) |  |  |  | 60.3 | 51.8 | 86.7
27 | CAAACUUAGUAGGGUAGGUACCCAGGACGACAUGAGGAUCACCCAUGUAAGAGCUUUUUGCUCGUCGUCAACAGUUG [JR_SHM208a_Sub019] (puzzle: Sensor for hsa-mir-208a) |  |  |  | 22.5 | 19.8 | 19.8
28 | UCUUGGUUUUUGCUCGUUUUUUGUGUUGAACAUGAGGAUCACCCAUGUAUUGUACGGUCCAGUUUGGUAAUGGUCCA [JMF 8] (puzzle: Sensor for hsa-mir-208a) |  |  |  | 20.5 | 31.2 | 35
29 | GAAGGAUGAGCGUAGGAUAUAGGAGGAGUGACAUGAGGAUCACCCAUGUGGUAGGAGGGAGGGUACUAGAAGGACGAGGAAGAGG [JR_SS2_Sub069] (puzzle: Same State 2) |  |  |  | 106 | 216 | 161
30 | GUGGAGGGUUGAGGAUAUUGAAUACAUAUGUUUAACAUGAGGAUCACCCAUGUGGGUUGCGGUAUCGAGAAGGUAAAUUACUGG [salish99_SSNG2_r04_036] (Eterna round: R96, puzzle: Same State NG 2) | 80.9 | 79 | 86.3 |  |  | 
31 | GUUACAUGAGGAUCACCCAUGUAUGUGUGGGAGUAAGUGUCUUAGGAUAUCUAUCAUUUAAAUUAAGAGAAGGAAGAUUGUUGU [JMF's solution 12] (Eterna round: R96, puzzle: Same State NG 3) | 126 | 73.5 | 118 |  |  | 
